From article PMC12612594, “Nuclear Magnetic Resonance‐based fragment screen of the E3 ligase Fem‐1 homolog B” (Protein Science : A Publication of the Protein Society, 2025) come the findings set out here.

Data set [1] in a line: stability of construct at room temperature. Format: physicochemical. From the text: Two FEM1B constructs (FEM1B‐1 and FEM1B‐2) were designed to remove free cysteines on the exterior of the protein to prevent disulfide bond formation and prevent aggregation. FEM1B‐3 to FEM1B‐11 were designed to modify hydrophobic residues on the protein surface and reduce the predicted pI away from the pH needed for the experiment. To accomplish this, residues such as Leu, Ile, Val, or Arg were mutated to negatively charged residues (Asp or Glu) to shift the pI to be more acidic. Hydrophobic residues on the surface of the protein were chosen for mutation to also reduce solvent‐exposed hydrophobic patches that may be contributing to the aggregation (Figure S1, Supporting Information).

Data set [2] can be described thus: thermal shift assay of FEM1B constructs. Format: physicochemical. Particulars: average of three replicates. The method, then: The substrate binding domain of FEM1B (residues 1–356, ~42 kDa molecular weight) was prepared for NMR‐based screening. However, this construct (FEM1B WT) was prone to aggregation and was not suitable for the NMR experiments. […] To reduce the potential for aggregation, we prepared several mutants of FEM1B constructs and evaluated their stability using a thermal shift assay (Table 1).

B1: FEM1B‐11: FEM1B construct, mutations L4E, L18E, A21E, L25S, Y84A, I270N, L281E, R321D (protein, UniProt Q9UK73 1-627, looked up, variant L4E L18E A21E L25S Y84A I270N L281E R321D)
Protein fem-1 homolog B: MEGEAGYVYKAASEGKVETLEALLSNRSESDIRYLLGYVSQQGGQRSTPLIIAARNGHAKVVRLLLEHYRVQTQQTGTVRFDGAVIDGATALWCAAGAGHFEVVKLLVSHGANVNHTTVTNSTPLRAACFDGRLDIVKYLVENNANISIANKYDNTCLMIAAYKGHTDVVRYLLEQRADPNAKAHCGATALHFAAEAGHIDIVKELIKWRAAIVVNGHGMTPLKVAAESCKADVVELLLSHADCDRRSRIEALELLGASFANDRENYDINKTYHYLYLAMEERFQDGDNILEKEVLPPIHAYGNRTECRNPQELESIRQDDDALHMEGLIVRERILGADNIDVSHPIIYRGAVYADNMEFEQCIKLWLHALHLRQKGNRNTHKDLLRFAQVFSQMIHLNETVKAPDIECVLRCSVLEIEQSMNRVKNISDADVHNAMDNYECNLYTFLYLVCISTKTQCSEEDQCKINKQIYNLIHLDPRTREGFTLLHLAVNSNTPVDDFHTNDVCSFPNALVTKLLLDCGAEVNAVDNEGNSALHIIVQYNRPISDFLTLHSIIISLVEAGAHTDMTNKQNKTPLDKSTTGVSEILLKTQMKMSLKCLAARAVRANDINYQDQIPRTLEEFVGFH
In the case of B1, the “stable at room temperature” value in data set [1] was “over 24 h”. The “Tm ± SD” value in data set [2] is 48.6 ± 1.7 °C.

B2: FEM1B‐6: FEM1B construct, mutations Y84A, I270N, L281E, R321D (protein, UniProt Q9UK73 1-627, looked up, variant Y84A I270N L281E R321D)
Protein fem-1 homolog B: MEGLAGYVYKAASEGKVLTLAALLLNRSESDIRYLLGYVSQQGGQRSTPLIIAARNGHAKVVRLLLEHYRVQTQQTGTVRFDGAVIDGATALWCAAGAGHFEVVKLLVSHGANVNHTTVTNSTPLRAACFDGRLDIVKYLVENNANISIANKYDNTCLMIAAYKGHTDVVRYLLEQRADPNAKAHCGATALHFAAEAGHIDIVKELIKWRAAIVVNGHGMTPLKVAAESCKADVVELLLSHADCDRRSRIEALELLGASFANDRENYDINKTYHYLYLAMEERFQDGDNILEKEVLPPIHAYGNRTECRNPQELESIRQDDDALHMEGLIVRERILGADNIDVSHPIIYRGAVYADNMEFEQCIKLWLHALHLRQKGNRNTHKDLLRFAQVFSQMIHLNETVKAPDIECVLRCSVLEIEQSMNRVKNISDADVHNAMDNYECNLYTFLYLVCISTKTQCSEEDQCKINKQIYNLIHLDPRTREGFTLLHLAVNSNTPVDDFHTNDVCSFPNALVTKLLLDCGAEVNAVDNEGNSALHIIVQYNRPISDFLTLHSIIISLVEAGAHTDMTNKQNKTPLDKSTTGVSEILLKTQMKMSLKCLAARAVRANDINYQDQIPRTLEEFVGFH
On to B2, for which the “Tm ± SD” value in data set [2] is 37.3 ± 0.04 °C.
